Measurements as given in article doi:10.1101/2023.01.09.523197 (bioRxiv, 2023).

Biological target: the molecule itself
Experiment: crystal structure

B1: Saccharopolyspora erythraea GlnR-DBD (domain or fragment)
chain: DGMLTVGDLVIEESTYTARLKGRALELTYKEFELLKYLAQHAGRVFTRAQLLQEVWGYDFFGGTRTVDVHVRRLRAKLGPEYDSMIGTVRNVGYKFVRPS
B1: binds.
